Data on 13 molecules can be found in US20260167721A1 (ABLEXIS, published 2026).

Assay [1] has as its target T1, recombinant human CD3 epsilon/delta heterodimer (human, UniProt P07766 23-126; P04234 22-105).
T1 construct: Recombinant protein in solution (200-50 nM) in the Octet assay; also called hCD3 E/D; human CD3E/D
In words: Octet BLI, mAb on FAB2G sensor, hCD3 E/D 200-50 nM; R^2 0.99. Background: In BLI a coated tip is dipped into the sample, and binding shifts an interference pattern.
T1 sequence (P07766 23-126, stated change not applied, chain 1 of 2): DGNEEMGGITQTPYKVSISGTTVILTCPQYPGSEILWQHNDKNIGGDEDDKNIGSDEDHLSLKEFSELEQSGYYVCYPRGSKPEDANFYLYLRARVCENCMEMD
T1 sequence (P04234 22-105, stated change not applied, chain 2 of 2): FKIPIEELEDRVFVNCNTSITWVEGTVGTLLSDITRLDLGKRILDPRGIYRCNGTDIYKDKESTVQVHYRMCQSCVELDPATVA

Assay [2] deals with T2, recombinant human CD3 epsilon/gamma heterodimer (human, UniProt P07766 23-126; P09693 23-116).
T2 construct: Recombinant protein in solution (200-50 nM) in the Octet assay; also called hCD3 E/G
In words: Octet BLI, mAb on FAB2G sensor, hCD3 E/G 200-50 nM; R^2 0.99.
T2 sequence (P07766 23-126, chain 1 of 2): as the sequence (P07766 23-126, stated change not applied, chain 1 of 2) above
T2 sequence (P09693 23-116, chain 2 of 2): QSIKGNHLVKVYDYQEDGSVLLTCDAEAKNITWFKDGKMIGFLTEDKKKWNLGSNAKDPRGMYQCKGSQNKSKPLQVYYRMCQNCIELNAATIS

The target of assay [3] is T3, recombinant human CD3 epsilon/gamma heterodimer (human, UniProt P07766 23-126; P09693 23-116).
T3 construct: Recombinant heterodimer used as analyte in Octet; also called hCD3 E/G
Description: BLI (Octet), mAb 5 ug/mL on FAB2G sensor, hCD3 E/G 200-50 nM.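 Also: antibodies purified from hybridoma supernatants, measured by Octet binding to recombinant human CD3 protein.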
T3 sequence (P07766 23-126, chain 1 of 2): as the sequence (P07766 23-126, stated change not applied, chain 1 of 2) above
T3 sequence (P09693 23-116, chain 2 of 2): as the sequence (P09693 23-116, chain 2 of 2) above
Description: (§1) Samples were evaluated by flow cytometry analysis against Jurkat and human Pan-T cells (FIG. 1B) as well as by Octet against recombinant human CD3 proteins to evaluate apparent affinities and binding off-rates (Table 6, infra).

The target in assay [4] is T4, recombinant human CD3 epsilon/delta heterodimer (human, UniProt P07766 23-126; P04234 22-105).
T4 construct: Recombinant heterodimer used as analyte in Octet; also called hCD3 E/D; human CD3E/D
Description: BLI (Octet), mAb 5 ug/mL on FAB2G sensor, hCD3 E/D 200-50 nM.
T4 sequence (P07766 23-126, stated change not applied, chain 1 of 2): as the sequence (P07766 23-126, stated change not applied, chain 1 of 2) above
T4 sequence (P04234 22-105, stated change not applied, chain 2 of 2): as the sequence (P04234 22-105, stated change not applied, chain 2 of 2) above
Description: as §1

B1: ABL-CD3-5 (antibody, V domains shown)
VH: EVQLVESGGGLVQPGGSLRLSCAASGFTFSRYSMNWVRQAPGKGLEWVSYISSSSSSIYYADSVKGRFTISRDNAKNSLYLQMNSLRDEDTAVYYCARDRRATLDYWGQGTLVTVSS
VL: NFMLTQPHSVSESPGKTVTISCTRSSGSIASNYVQWYQQRPGSSPTTVIYEDNQRPSGVPDRFSGSIDSSSNSASLTISGLKTEDEADYYCQSYDSSNHVFGGGTKLTVL
notes: Chimeric hybridoma mAb: human V, CH1, upper hinge; mouse middle hinge, CH2, CH3
The term Kd denotes a measure of binding affinity in units of concentration. One may read the koff as a measure of how fast the partners let go of each other. In general, kon refers to the rate constant with which the complex forms. As to B1, in assay [1], the Kd is 88.1 nM, the Response amounted to 0.36, the koff stood at 0.0321 s⁻¹ and the kon stood at 365000 M⁻¹ s⁻¹. Besides, in assay [2], the Kd turned out to be 106 nM, the Response worked out at 0.27, the off-rate constant (koff) was determined as 0.0449 s⁻¹ and the kon was 423000 M⁻¹ s⁻¹.

B2: ABL-CD3-81 (antibody, V domains shown)
VH: QVQLQESGPGLVKPSQTLSLTCTVSGGSISSGGYYWSWIRQHPGKGLEWIGYIYYSGSTYYNPSLKSRVTISVDTSKDQFSLKLSSVTAADTAVYYCARERKTSLPFDIWGQGTMVTVSS
VL: NFMLTQPHSVSESPGKTVTISCTRSSGSIASNYVQWYQQRPGSSPTTVIYEDNQRPSGVPDRFSGSIDSSSNSASLTISGLKTEDEAYYYCQSFDSSNRVFGGGTKLTVL
notes: mAb purified from hybridoma; chimeric AlivaMab IgG (human VH, CH1 and upper hinge; mouse middle hinge, CH2, CH3; human light chain)
Turning to B2, in assay [3], the Kd was 912 nM, the Response turned out to be 0.04, the koff was 0.692 s⁻¹ and the kon came out at 759000 M⁻¹ s⁻¹. Besides, in assay [4], the Kd came out at 283 nM, the Response came out at 0.17, the koff was determined as 0.107 s⁻¹ and the kon was found to be 378000 M⁻¹ s⁻¹.

B3: ABL-CD3-48 (antibody, V domains shown)
VH: EVQLVESGGGLVKPGGSLRLSCAASGFTFSSYTMNWVRQAPGKGLEWVSSISGSGSYIYYADSVKGRFTISRDNAKNSLYLQMNSLRAEDTAVYYCAREPPTLGMDYWGQGTLVTVSS
VL: NFMLTQPHSVSESPGKTVTISCTRSSGSIASNYVQWYQQRPGSSPTTVIYEDNQRPSGVPDRFSGSIDSSSNSASLTISGLKTEDEADYYCQSFDSSNRVFGGGTKLTVL
notes: as for B1
For the molecule B3, in assay [1], the Kd is 11.5 nM, the Response was determined as 1.17, the koff was determined as 0.00114 s⁻¹ and the kon stood at 99300 M⁻¹ s⁻¹. Also, in assay [2], the Kd came to 17.9 nM, the Response was determined as 1.03, the koff amounted to 0.00179 s⁻¹ and the kon is 100000 M⁻¹ s⁻¹.

B4: ABL-CD3-85 (antibody, V domains shown)
VH: EVQLVESGGGLVKPGGSLRLSCAASGFTFSSYSMNWVRQAPGKGLEWVSSISRRSGYIYYADSVKGRFTLSRDNAKKSLYLQMNSLRAEDTAVYYCARDLNWAFDYWGQGTLVTVSS
VL: NFMLTQPHSVSESPGKTVTISCTRSSGSIASNYVQWYQQRPGSSPTTVIYEDNHRPSGVPDRFSGSIDSSSNSASLTIAGLKTEDEADYYCQSCDSSNVVFGGGTKLTVL
notes: as for B2
In the case of B4, in assay [3], the Kd came to 29.8 nM, the Response stood at 0.64, the koff is 0.00608 s⁻¹ and the kon stood at 204000 M⁻¹ s⁻¹. Also, in assay [4], the dissociation constant (Kd) was determined as 27.9 nM, the Response was 0.042, the koff stood at 0.00689 s⁻¹ and the on-rate (kon) amounted to 247000 M⁻¹ s⁻¹.

B5: ABL-CD3-86 (antibody, V domains shown)
VH: EVQLVESGGGLVKPGGSLRLSCAASGFTFSRYSMNWVRQAPGKGLEWVSTISRSSRYIYYGDSVKGRFTISRDNAKNSLLLQMNSLRAEDTAVYYCARDHNWSFDYWGKGILVTVSS
VL: NFMLTQPLSVSESPGKTLTISCTRNSGSIASNYVQWYRQRPGSSPTTVIYEDKQRPSGVPDRFSGSIDSSSNSASLTISGLKAEDEADYYCQSCDSSNVVFGGGTTLTVL
notes: as for B2
Consider B5, for which, in assay [3], the Kd worked out at 3.52 nM, the Response worked out at 1.17, the koff came out at 0.000558 s⁻¹ and the kon was determined as 158000 M⁻¹ s⁻¹. Besides, in assay [4], the Kd worked out at 3.88 nM, the Response is 1.1, the koff amounted to 0.000711 s⁻¹ and the kon stood at 184000 M⁻¹ s⁻¹.

B6: ABL-CD3-83 (antibody, V domains shown)
VH: EVQLVESGGGLVKPGGSLRLSCAASGFTFSSYSMNWVRQAPGKGLEWVSTISRSGGYIYDADSVKGRFTISRDNAKNSLYLQMNSLRAEDTAVYYCARDFNWTFDNWGQGTLVTVSS
VL: NFMLTQPHSVSESPGKTVTISCTRSSGSIASNYVQWYQQRPGSSPTTVIYEDNQRPSGVPDRFSGSIDSSSNSASLTISGLKTEDEADYYCQSSDRSNVVFGGGTKLTVL
notes: as for B2
As to B6, in assay [3], the Kd stood at 37.6 nM, the Response stood at 0.01, the koff is 0.00649 s⁻¹ and the kon worked out at 173000 M⁻¹ s⁻¹. Further, in assay [4], the Kd was 22 nM, the Response is 0.03, the koff was 0.00882 s⁻¹ and the association rate constant (kon) is 401000 M⁻¹ s⁻¹.

B7: ABL-CD3-26 (antibody, V domains shown)
VH: EVHLVESGGGLVKPGGSLRLSCAASGFTFSSYSMNWVRQAPGKGLEWVSSISSSSTYIYYADSVKGRFTISRDNAKNSLYLQMNSLRAEDTAVYYCAREPRTLGMDYWGQGILVTVSS
VL: NFMLTQPHSVSESPGKTVTISCTRSSGSIASNYVQWYQQRPGSSPTTVIYEDNHRPSGVPDRFSGSIDSSSNSASLTISGLKTEDEADYFCQSFDSSNRVFGGGTKLTVL
notes: as for B1
Turning to B7, in assay [1], the Kd is 6.66 nM, the Response worked out at 1.03, the koff was 0.00104 s⁻¹ and the kon is 156000 M⁻¹ s⁻¹. Also, in assay [2], the Kd amounted to 9.31 nM, the Response is 1.01, the koff stood at 0.00123 s⁻¹ and the kon was determined as 132000 M⁻¹ s⁻¹.

B8: ABL-CD3-7 (antibody, V domains shown)
VH: EVQLVESGGGLVKPGGSLRLSCAASGFTFSRYSMNWVRQAPGKGLKWVSSISSSGSYKYYADSVKGRFTISRDNAKNSLYLQMNSLRAEDTAVYYCAREPPTLGMDYWGQGTLVTVSS
VL: NFMLTQPHSVSESPGKTVTISCTRSSGSIASNYVQWYQQRPGSSPTTVIYEDNQRPSGVPDRFSGSIDSSSNSASLTISGLKTEDEADYYCQSFDNSNRVFGGGTKLTVL
notes: as for B1
As for B8, in assay [1], the Kd came to 4.14 nM, the Response was determined as 0.86, the koff stood at 0.000786 s⁻¹ and the kon amounted to 190000 M⁻¹ s⁻¹. Moreover, in assay [2], the Kd is 8.42 nM, the Response was found to be 0.81, the koff was 0.00142 s⁻¹ and the kon was found to be 169000 M⁻¹ s⁻¹.

B9: ABL-CD3-12 (antibody, V domains shown)
VH: EVQLVESGGGLVKPGGSLRLSCAASGFTFSSYTMNWVRQAPGKGLEWVSSISRSSSYKYYADSVKGRFTISRDNAKNSLYLQMNSLRAEDTAVYYCAREPPTLGMDYWGQGTLVIVSS
VL: NFMLTQPHSVSESPGKTVTISCTRSNGSITSNYVQWYQQRPGSSPTTVIYEDNQRPSGVPDRFSGSIDSSSNSASLTISGLKTEDEADYYCQSFDNSNRVFGEKTKLTVL
notes: as for B1
Consider B9, for which, in assay [1], the Kd was found to be 10.6 nM, the Response came out at 1.21, the dissociation rate constant (koff) was 0.00144 s⁻¹ and the kon amounted to 136000 M⁻¹ s⁻¹. In assay [2], the dissociation constant (Kd) is 10.5 nM, the Response was determined as 1.14, the off-rate constant (koff) was 0.00124 s⁻¹ and the kon amounted to 118000 M⁻¹ s⁻¹.

B10: ABL-CD3-24 (antibody, V domains shown)
VH: EVQLVESGGGLVKPGGSLRLSCVASGFTFSSYTMNWVRQAPGKGLEWVSSISRSGSYKYNADSVKGRFTISRDNAKNSLYLQMNSLRVEDTAVYYCAREPPTLGMDYWGQGTLVTVSS
VL: NFMLTQPHSVSESPGKTVTISCTRSSGSIASNYVQWYQQRPGSSPTTVIYEDNQRPSGVPDRFSGSIDSSSNSASLTISGLKTEDEADYYCQSFYSSNRVFGGGTELTVL
notes: as for B1
B10: in assay [1], the Kd amounted to 5.78 nM, the Response came to 0.93, the koff amounted to 0.00101 s⁻¹ and the kon was 175000 M⁻¹ s⁻¹. Besides, in assay [2], the Kd was found to be 8.48 nM, the Response came out at 0.89, the koff was found to be 0.00134 s⁻¹ and the kon was 158000 M⁻¹ s⁻¹.

B11: ABL-CD3-4 (antibody, V domains shown)
VH: VQLVESGGGLVKPGGSLRLSCAASGFTFSSYNMNWVRQAPGKGLEWVSSISSSSSYIYYADSVKGRFTISRDNAKNSLYLQMNSLRAEDTAVFYCARAERGSYAFDIWGQGTMVTVSS
VL: not shown
notes: as for B1
As to B11, in assay [1], the Kd is 94.5 nM, the Response turned out to be 0.32, the koff was 0.0302 s⁻¹ and the kon amounted to 320000 M⁻¹ s⁻¹. In addition, in assay [2], the Kd amounted to 91.9 nM, the Response is 0.36, the koff was 0.0221 s⁻¹ and the association rate constant (kon) was found to be 241000 M⁻¹ s⁻¹.

B12: ABL-CD3-3 (antibody, V domains shown)
VH: EVQLVESGGGLVKPGGSLRLSCAASGFTFSSYSMNWVRQAPGKGLEWVSYISRSSNYIHYADSVKGRFTIFRDNAKNSLYLQMNSLRVEDTAVYYCARAERGSYAVDIWGQGTMVTVSS
VL: not shown
notes: as for B1
Consider B12, for which, in assay [1], the Kd stood at 10.4 nM, the Response was found to be 1.03, the koff worked out at 0.0012 s⁻¹ and the kon is 116000 M⁻¹ s⁻¹. Besides, in assay [2], the Kd was 12.4 nM, the Response worked out at 0.96, the koff is 0.00143 s⁻¹ and the kon is 115000 M⁻¹ s⁻¹.

B13: ABL-CD3-79 (antibody, V domains shown)
VH: EVQLVESGGGLVKPGGSLRLSCAASGFTVSNYSMNWVRQAPGKGLEWVSCISRSSSYIYYADSVKGRFTISRDNAKNSLFLQMNSLRAEDTAVYYCARERWELLYFDYWGQGTLVTVSS
VL: QTVVTQEPSFSVSPGGTVTLTCGLSSGSVSTSYYPSWYQQTPGQAPRTLIYSTNTRSSGVPDRFSGSILGNKAALTITGAQADDESDYYCVLYMGSGIWVFGGGTKLTVL
notes: as for B2
In the case of B13, in assay [3], the Kd turned out to be 412 nM, the Response was found to be 0.07, the koff was determined as 0.162 s⁻¹ and the kon is 393000 M⁻¹ s⁻¹. Moreover, in assay [4], the Kd was 120 nM, the Response was 0.22, the koff is 0.0473 s⁻¹ and the kon amounted to 393000 M⁻¹ s⁻¹.
